Source: PMC3362863 (Traffic (Copenhagen, Denmark), 2011)

Target: the molecule itself
Assay: cross-linking

B1: CHC-TFE3 fusion protein, Flag- or Myc-tagged (other, human, UniProt Q00610 1-932, looked up)
chain: MAQILPIRFQEHLQLQNLGINPANIGFSTLTMESDKFICIREKVGEQAQVVIIDMNDPSNPIRRPISADSAIMNPASKVIALKAGKTLQIFNIEMKSKMKAHTMTDDVTFWKWISLNTVALVTDNAVYHWSMEGESQPVKMFDRHSSLAGCQIINYRTDAKQKWLLLTGISAQQNRVVGAMQLYSVDRKVSQPIEGHAASFAQFKMEGNAEESTLFCFAVRGQAGGKLHIIEVGTPPTGNQPFPKKAVDVFFPPEAQNDFPVAMQISEKHDVVFLITKYGYIHLYDLETGTCIYMNRISGETIFVTAPHEATAGIIGVNRKGQVLSVCVEEENIIPYITNVLQNPDLALRMAVRNNLAGAEELFARKFNALFAQGNYSEAAKVAANAPKGILRTPDTIRRFQSVPAQPGQTSPLLQYFGILLDQGQLNKYESLELCRPVLQQGRKQLLEKWLKEDKLECSEELGDLVKSVDPTLALSVYLRANVPNKVIQCFAETGQVQKIVLYAKKVGYTPDWIFLLRNVMRISPDQGQQFAQMLVQDEEPLADITQIVDVFMEYNLIQQCTAFLLDALKNNRPSEGPLQTRLLEMNLMHAPQVADAILGNQMFTHYDRAHIAQLCEKAGLLQRALEHFTDLYDIKRAVVHTHLLNPEWLVNYFGSLSVEDSLECLRAMLSANIRQNLQICVQVASKYHEQLSTQSLIELFESFKSFEGLFYFLGSIVNFSQDPDVHFKYIQAACKTGQIKEVERICRESNCYDPERVKNFLKEAKLTDQLPLIIVCDRFDFVHDLVLYLYRNNLQKYIEIYVQKVNPSRLPVVIGGLLDVDCSEDVIKNLILVVRGQFSTDELVAEVEKRNRLKLLLPWLEARIHEGCEEPATHNALAKIYIDSNNNPERFLRENPYYDSRVVGKYCEKRDPHLACVAYERGQCDLELINLPVSGNLLDVYSSQGVATPAITVSNSCPAELPNIKREISETEAKALLKERQKKDNHNLIERRRRFNINDRIKELGTLIPKSSDPEMRWNKGTILKASVDYIRKLQKEQQRSKDLESRQRSLEQANRSLQLRIQELELQAQIHGLPVPPTPGLLSLATTSASDSLKPEQLDIEEEGRPGAATFHVGGGPAQNAPHQQPPAPPSDALLDLHFPSDHLGDLGDPFHLGLEDILMEEEEGVVGGLSGGALSPLRAASDPLLSSVSPAVSKASSRRSSFSMEEES
  stoichiometry N: 2

B2: P2X4-GFP (receptor, UniProt P51577 1-388, looked up)
chain: MAGCCSVLGSFLFEYDTPRIVLIRSRKVGLMNRAVQLLILAYVIGWVFVWEKGYQETDSVVSSVTTKAKGVAVTNTSQLGFRIWDVADYVIPAQEENSLFIMTNMIVTVNQTQSTCPEIPDKTSICNSDADCTPGSVDTHSSGVATGRCVPFNESVKTCEVAAWCPVENDVGVPTPAFLKAAENFTLLVKNNIWYPKFNFSKRNILPNITTSYLKSCIYNAQTDPFCPIFRLGTIVEDAGHSFQEMAVEGGIMGIQIKWDCNLDRAASLCLPRYSFRRLDTRDLEHNVSPGYNFRFAKYYRDLAGKEQRTLTKAYGIRFDIIVFGKAGKFDIIPTMINVGSGLALLGVATVLCDVIVLYCMKKKYYYRDKKYKYVEDYEQGLSGEMNQ
  stoichiometry N: 3
